25 molecules from US20120039802A1 (published 2012) can be followed below.

B1: 333-F09 peptide-displaying phage (SEQ ID NO: 050) (peptide)
peptide: AGQFKCAGPPSFACWMTGT
B2: 330-B07 peptide-displaying phage (SEQ ID NO: 053) (peptide)
peptide: AGSFACKGPPTFACVEFGT
B3: 452-F01 peptide-displaying phage (SEQ ID NO: 006) (peptide)
peptide: GSEYSCRTSRCIFSAP
B4: 336-G04 peptide-displaying phage (SEQ ID NO: 051) (peptide)
peptide: AGWFQCKGPPSFECERHGT
B5: 458-B05 peptide-displaying phage (SEQ ID NO: 046) (peptide)
peptide: ADAWMCEYFQWNCGDKGT
B6: 547-H07 peptide-displaying phage (SEQ ID NO: 058) (peptide)
peptide: AGDWICHGPPMFECEWVGT
B7: 323-A11 peptide-displaying phage (SEQ ID NO: 059) (peptide)
peptide: AGYTSCVGPPSFECTPYGT
B8: 331-G04 peptide-displaying phage (SEQ ID NO: 055) (peptide)
peptide: AGSWHCAGPPSFECWEFGT
B9: 330-C10 peptide-displaying phage (SEQ ID NO: 054) (peptide)
peptide: AGNYFCAGSPSFSCYFMGT
B10: 325-H05 peptide-displaying phage (SEQ ID NO: 048) (peptide)
peptide: AGSIQCKGPPWFSCAMYGT
B11: 332-A05 peptide-displaying phage (SEQ ID NO: 064) (peptide)
peptide: AGHGTCRGWPTFECIYFGT
B12: 334-G06 peptide-displaying phage (SEQ ID NO: 052) (peptide)
peptide: AGWTHCIGPPTFECIPMGT
B13: 329-D02 peptide-displaying phage (SEQ ID NO: 061) (peptide)
peptide: AGHAWCSGPPRFECWPPGT
B14: 330-F05 peptide-displaying phage (SEQ ID NO: 049) (peptide)
peptide: AGYYGCKGPPTFECQWMGT
B15: 333-H03 peptide-displaying phage (SEQ ID NO: 060) (peptide)
peptide: AGYFECKGPPTFECWLSGT
B16: 548-F06 peptide-displaying phage (SEQ ID NO: 056) (peptide)
peptide: AGWISCAGPPTFACWPGGT
B17: 569-C03 peptide-displaying phage (SEQ ID NO: 007) (peptide)
peptide: GSFILCWWTFCDTNAP
B18: 545-E08 peptide-displaying phage (SEQ ID NO: 047) (peptide)
peptide: GDGFLCRWENGWCEFWDP
B19: 550-C09 peptide-displaying phage (SEQ ID NO: 062) (peptide)
peptide: AGHYWCAGPPTFICMGPGT
B20: 538-F08 peptide-displaying phage (SEQ ID NO: 057) (peptide)
peptide: AGFVNCKGPPTFECILTGT
B21: 470-E11 peptide-displaying phage (SEQ ID NO: 005) (peptide)
peptide: GSLIFCPYGECMMYAP
B22: 571-C05 peptide-displaying phage (SEQ ID NO: 001) (peptide)
peptide: GSWIICWWDNCGSSAP
B23: 330-C01 peptide-displaying phage (SEQ ID NO: 065) (peptide)
peptide: AGDWHCQGPPAFMCWMIGT
B24: 548-E08 peptide-displaying phage (SEQ ID NO: 063) (peptide)
peptide: AGETTCLGWPTFVCVDYGT
B25: 545-A09 peptide-displaying phage (SEQ ID NO: 066) (peptide)
peptide: AGLPKCSGPPWFSCYYGGT

T1 sequence (P08581 25-932): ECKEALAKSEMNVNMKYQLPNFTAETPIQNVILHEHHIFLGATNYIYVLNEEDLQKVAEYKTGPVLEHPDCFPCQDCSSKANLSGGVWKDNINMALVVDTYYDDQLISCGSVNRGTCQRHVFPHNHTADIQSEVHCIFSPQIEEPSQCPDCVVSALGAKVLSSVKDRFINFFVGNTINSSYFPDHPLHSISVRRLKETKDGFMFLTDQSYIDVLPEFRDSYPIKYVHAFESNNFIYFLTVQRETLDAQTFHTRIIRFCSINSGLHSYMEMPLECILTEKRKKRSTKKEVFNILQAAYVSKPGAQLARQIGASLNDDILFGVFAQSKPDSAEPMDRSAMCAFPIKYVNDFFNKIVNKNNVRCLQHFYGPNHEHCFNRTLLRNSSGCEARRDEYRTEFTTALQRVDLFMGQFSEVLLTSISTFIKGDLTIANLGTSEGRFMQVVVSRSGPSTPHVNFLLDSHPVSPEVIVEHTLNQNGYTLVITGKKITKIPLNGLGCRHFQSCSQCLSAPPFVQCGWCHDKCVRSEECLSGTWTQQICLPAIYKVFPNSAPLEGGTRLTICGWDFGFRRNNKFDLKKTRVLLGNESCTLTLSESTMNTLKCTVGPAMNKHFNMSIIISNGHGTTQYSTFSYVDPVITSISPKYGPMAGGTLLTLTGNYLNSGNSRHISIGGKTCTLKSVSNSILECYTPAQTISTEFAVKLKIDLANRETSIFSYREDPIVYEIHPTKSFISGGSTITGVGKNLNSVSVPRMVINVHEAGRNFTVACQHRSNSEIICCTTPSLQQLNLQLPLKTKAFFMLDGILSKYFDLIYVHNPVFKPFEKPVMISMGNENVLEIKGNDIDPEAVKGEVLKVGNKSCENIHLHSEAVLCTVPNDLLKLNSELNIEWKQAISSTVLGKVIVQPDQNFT

One experiment addresses T1, cMet-Fc fusion protein (extracellular domain of the cMet receptor expressed as an Fc-fusion protein) (human, UniProt P08581 25-932).
T1 construct: extracellular domain; also called soluble cMet-Fc-fusion protein; soluble cMet receptor; not shown: Fc part
In words: phage ELISA, cMet-Fc vs TRAIL-Fc. On the procedure: Protein phage ELISAs using peptide-displaying phage isolates from the various selection campaigns were performed to determine specificity of the peptides for cMet versus an unrelated Fc-fusion protein (TRAIL-Fe). Briefly, 384-well plates were coated overnight at 4 C with 0.5 μg/mL of cMet-Fc fusion protein or TRAIL-Fc fusion protein (background). The plates were blocked for 2 hours 37 C with 3% (w/v) BSA in PBS containing 0.05% (v/v) Tween-20 (PBST). The plates were washed with PBST and 100 μL of peptide-displaying phage were added to each well. The plates were incubated for 2 hours at room temperature and washed with PBST. cMet-binding peptide-displaying phage were detected using an HRP-conjugated anti-M13 antibody.
On to B1, for which the “Protein ELISA (fold over background)” value came out at 14.8 fold.

As for B2, the “Protein ELISA (fold over background)” value worked out at 18.1 fold.

Turning to B3, the “Protein ELISA (fold over background)” value was found to be 3.2 fold.

As to B4, the “Protein ELISA (fold over background)” value was 5.4 fold.

Take B5: the “Protein ELISA (fold over background)” value is 4.5 fold.

Turning to B6, the “Protein ELISA (fold over background)” value is 15.9 fold.

On to B7, for which the “Protein ELISA (fold over background)” value is 21.2 fold.

As to B8, the “Protein ELISA (fold over background)” value was determined as 18.3 fold.

As to B9, the “Protein ELISA (fold over background)” value was 13.4 fold.

For the molecule B10, the “Protein ELISA (fold over background)” value worked out at 15.9 fold.

With B11, the “Protein ELISA (fold over background)” value is 6 fold.

B12: the “Protein ELISA (fold over background)” value was found to be 8 fold.

Consider B13, for which the “Protein ELISA (fold over background)” value stood at 3.2 fold.

As for B14, the “Protein ELISA (fold over background)” value turned out to be 13.8 fold.

In the case of B15, the “Protein ELISA (fold over background)” value worked out at 8.1 fold.

As for B16, the “Protein ELISA (fold over background)” value stood at 14.3 fold.

With B17, the “Protein ELISA (fold over background)” value was 3.4 fold.

For the molecule B18, the “Protein ELISA (fold over background)” value is 4.7 fold.

Take B19: the “Protein ELISA (fold over background)” value stood at 10.2 fold.

On to B20, for which the “Protein ELISA (fold over background)” value was found to be 12.3 fold.

Regarding B21, the “Protein ELISA (fold over background)” value is 3.5 fold.

Take B22: the “Protein ELISA (fold over background)” value stood at 4.9 fold.

For the molecule B23, the “Protein ELISA (fold over background)” value is 4.7 fold.

Turning to B24, the “Protein ELISA (fold over background)” value is 5.3 fold.

Consider B25, for which the “Protein ELISA (fold over background)” value turned out to be 13.5 fold.

For a further experiment, the target named is T2, human cMet expressed on 3T3 cells (human, UniProt P08581 25-1390).
T2 construct: whole, on cells; cells fixed with glutaraldehyde; also called cell surface-expressed human cMet; 3T3 cells that over-express human cMet
T2 sequence (P08581 25-1390): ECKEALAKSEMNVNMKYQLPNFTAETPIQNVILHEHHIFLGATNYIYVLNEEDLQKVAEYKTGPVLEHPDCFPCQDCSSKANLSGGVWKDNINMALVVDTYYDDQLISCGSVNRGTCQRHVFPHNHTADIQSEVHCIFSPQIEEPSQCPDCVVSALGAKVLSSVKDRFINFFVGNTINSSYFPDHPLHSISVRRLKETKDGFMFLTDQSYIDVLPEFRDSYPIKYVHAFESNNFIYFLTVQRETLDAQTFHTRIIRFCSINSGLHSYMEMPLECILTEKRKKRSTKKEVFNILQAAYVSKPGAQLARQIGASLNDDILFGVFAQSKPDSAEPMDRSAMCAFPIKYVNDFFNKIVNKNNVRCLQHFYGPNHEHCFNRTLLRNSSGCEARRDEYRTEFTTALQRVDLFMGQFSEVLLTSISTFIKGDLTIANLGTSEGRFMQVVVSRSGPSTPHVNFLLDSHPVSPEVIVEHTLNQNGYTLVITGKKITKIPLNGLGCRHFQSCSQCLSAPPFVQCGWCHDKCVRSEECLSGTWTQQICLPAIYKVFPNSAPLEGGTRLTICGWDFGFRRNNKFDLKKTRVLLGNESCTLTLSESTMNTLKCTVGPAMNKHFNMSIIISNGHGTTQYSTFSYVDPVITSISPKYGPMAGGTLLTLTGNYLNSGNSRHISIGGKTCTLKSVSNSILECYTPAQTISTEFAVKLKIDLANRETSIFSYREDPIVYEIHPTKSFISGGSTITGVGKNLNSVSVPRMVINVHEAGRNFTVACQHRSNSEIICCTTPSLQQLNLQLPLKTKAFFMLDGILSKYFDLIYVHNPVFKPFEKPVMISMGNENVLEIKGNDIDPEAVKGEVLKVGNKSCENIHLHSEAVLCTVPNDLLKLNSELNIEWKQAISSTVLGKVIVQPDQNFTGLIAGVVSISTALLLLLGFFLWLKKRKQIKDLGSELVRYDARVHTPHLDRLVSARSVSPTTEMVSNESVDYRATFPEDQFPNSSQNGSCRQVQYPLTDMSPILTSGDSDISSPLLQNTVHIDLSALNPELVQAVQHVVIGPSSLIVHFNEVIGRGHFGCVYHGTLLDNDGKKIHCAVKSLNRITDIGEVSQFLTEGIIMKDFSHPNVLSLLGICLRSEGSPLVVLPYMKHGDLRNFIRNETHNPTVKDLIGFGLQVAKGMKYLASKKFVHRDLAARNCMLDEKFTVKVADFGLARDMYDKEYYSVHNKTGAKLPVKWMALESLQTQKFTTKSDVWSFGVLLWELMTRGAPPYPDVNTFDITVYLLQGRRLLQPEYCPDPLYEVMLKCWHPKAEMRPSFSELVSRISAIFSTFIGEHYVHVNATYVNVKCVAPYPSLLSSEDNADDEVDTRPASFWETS
In words: whole cell phage ELISA, 3T3 human cMet vs 3T3. On the procedure:
Whole cell ELISAs were performed using 3T3 cells that over-express human cMet. […] Briefly, 96-well plates were seeded with 10⁵ cells per well. The plates were centrifuged for 5 minutes at 1600 rpm to pellet the cells. The resulting cell layer was fixed with 0.1% (v/v) glutaraldehyde for 12 minutes at 37 C. […] Peptide-displaying phage also were blocked in the above solution for 1 hour at 37 C. 100 μL of blocked phage was then added to each well and the plates were incubated for 1 hour at room temperature. The plates were washed with PBST. cMet-binding peptide-displaying phage were detected using an HRP-conjugated anti-M13 antibody.
Background: An ELISA detects its analyte on a solid surface through an enzyme-linked reagent.
B1: the “WC ELISA (fold over background)” value was determined as 1.43 fold.

Turning to B2, the “WC ELISA (fold over background)” value was determined as 1.27 fold.

On to B3, for which the “WC ELISA (fold over background)” value came to 1.33 fold.

As to B4, the “WC ELISA (fold over background)” value came out at 1.33 fold.

Consider B5, for which the “WC ELISA (fold over background)” value amounted to 1.33 fold.

For B6, the “WC ELISA (fold over background)” value is 1.17 fold.

Regarding B7, the “WC ELISA (fold over background)” value came to 1.43 fold.

For B8, the “WC ELISA (fold over background)” value amounted to 1.47 fold.

Take B9: the “WC ELISA (fold over background)” value amounted to 1.33 fold.

Take B10: the “WC ELISA (fold over background)” value is 1.47 fold.

Take B11: the “WC ELISA (fold over background)” value turned out to be 1.4 fold.

As for B12, the “WC ELISA (fold over background)” value was 1.3 fold.

In the case of B13, the “WC ELISA (fold over background)” value was 1.27 fold.

Take B14: the “WC ELISA (fold over background)” value is 1.33 fold.

B15: the “WC ELISA (fold over background)” value was found to be 1.43 fold.

Consider B16, for which the “WC ELISA (fold over background)” value worked out at 1.23 fold.

Regarding B17, the “WC ELISA (fold over background)” value is 1.3 fold.

Consider B18, for which the “WC ELISA (fold over background)” value was determined as 1.3 fold.

Regarding B19, the “WC ELISA (fold over background)” value came out at 1.4 fold.

For B20, the “WC ELISA (fold over background)” value is 1.23 fold.

Take B21: the “WC ELISA (fold over background)” value amounted to 1.33 fold.

For B22, the “WC ELISA (fold over background)” value worked out at 1.3 fold.

In the case of B23, the “WC ELISA (fold over background)” value came to 1.3 fold.

Turning to B24, the “WC ELISA (fold over background)” value amounted to 1.27 fold.

Regarding B25, the “WC ELISA (fold over background)” value was determined as 1.3 fold.

The target in another experiment is T1, cMet-Fc fusion protein (extracellular …). In words: phage ELISA on cMet-Fc, competitor HGF 100 ng/mL. The procedure:
(§1) These assays were conducted using the peptide-displaying phage discovered from the initial selection and screening campaigns using the first generation peptide libraries. Briefly, 96-well plates were coated overnight at 4 C with 0.5 μg/mL of cMet-Fc fusion protein or TRAIL-Fc fusion protein (background). The plates were blocked for 2 hours at 37 C with 3% BSA in PBST. […] This was followed by an addition of 30 μL of peptide-displaying phage overnight culture to each well. The plates were incubated for 2 hours at room temperature, washed with PBST and cMet-binding peptide-displaying phage was detected using an HRP-conjugated anti-M13 antibody.
For the molecule B1, the “% of binding in the absence of HGF” value was 52%.

Regarding B2, the “% of binding in the absence of HGF” value was determined as 58%.

For the molecule B3, the “% of binding in the absence of HGF” value came out at 117%.

For B4, the “% of binding in the absence of HGF” value came out at 46%.

Take B5: the “% of binding in the absence of HGF” value came to 201%.

In the case of B6, the “% of binding in the absence of HGF” value came to 60%.

For the molecule B7, the “% of binding in the absence of HGF” value came to 41%.

Regarding B8, the “% of binding in the absence of HGF” value came to 56%.

Take B9: the “% of binding in the absence of HGF” value came to 48%.

Regarding B10, the “% of binding in the absence of HGF” value stood at 41%.

Take B11: the “% of binding in the absence of HGF” value turned out to be 40%.

Regarding B12, the “% of binding in the absence of HGF” value worked out at 56%.

Consider B13, for which the “% of binding in the absence of HGF” value was 53%.

B14: the “% of binding in the absence of HGF” value was 51%.

As for B15, the “% of binding in the absence of HGF” value was 55%.

Consider B16, for which the “% of binding in the absence of HGF” value is 76%.

Turning to B17, the “% of binding in the absence of HGF” value was determined as 95%.

B18: the “% of binding in the absence of HGF” value was 81%.

Consider B19, for which the “% of binding in the absence of HGF” value came to 25%.

Take B20: the “% of binding in the absence of HGF” value is 55%.

As to B21, the “% of binding in the absence of HGF” value was determined as 55%.

For the molecule B22, the “% of binding in the absence of HGF” value was determined as 102%.

In the case of B23, the “% of binding in the absence of HGF” value worked out at 58%.

In the case of B24, the “% of binding in the absence of HGF” value is 102%.

With B25, the “% of binding in the absence of HGF” value is 44%.

The next experiment shares this target. In words: phage ELISA on cMet-Fc, competitor HGF 500 ng/mL. On the procedure: as §1
Regarding B1, the “% of binding in the absence of HGF” value came out at 32%.

For the molecule B2, the “% of binding in the absence of HGF” value came to 40%.

Consider B3, for which the “% of binding in the absence of HGF” value turned out to be 110%.

B4: the “% of binding in the absence of HGF” value was 23%.

For B5, the “% of binding in the absence of HGF” value stood at 247%.

Regarding B6, the “% of binding in the absence of HGF” value is 45%.

On to B7, for which the “% of binding in the absence of HGF” value turned out to be 18%.

B8: the “% of binding in the absence of HGF” value came to 36%.

In the case of B9, the “% of binding in the absence of HGF” value turned out to be 25%.

In the case of B10, the “% of binding in the absence of HGF” value came out at 32%.

With B11, the “% of binding in the absence of HGF” value stood at 21%.

With B12, the “% of binding in the absence of HGF” value came to 43%.

For B13, the “% of binding in the absence of HGF” value stood at 31%.

As for B14, the “% of binding in the absence of HGF” value is 27%.

Turning to B15, the “% of binding in the absence of HGF” value was found to be 37%.

B16: the “% of binding in the absence of HGF” value came out at 18%.

As for B17, the “% of binding in the absence of HGF” value came out at 89%.

As to B18, the “% of binding in the absence of HGF” value is 57%.

As to B19, the “% of binding in the absence of HGF” value came out at 25%.

In the case of B20, the “% of binding in the absence of HGF” value worked out at 43%.

As to B21, the “% of binding in the absence of HGF” value worked out at 127%.

Take B22: the “% of binding in the absence of HGF” value was 74%.

As to B23, the “% of binding in the absence of HGF” value is 43%.

Regarding B24, the “% of binding in the absence of HGF” value stood at 50%.

For B25, the “% of binding in the absence of HGF” value was 22%.
